Test results reported in patent publication US12385050B1.

How the values were obtained:
[1] = biological target: endotoxin (endotoxin concentrate; δ-endotoxin of Bacillus thuringiensis)
[2] = biological target: endotoxin (endotoxin concentrate; δ-endotoxin of Bacillus thuringiensis); remark: listed apart in the source
[3] = biological target: endotoxin (endotoxin concentrate; δ-endotoxin of Bacillus thuringiensis); remark: listed apart in the source

Substance	RPW egg hatching rate, endotoxin solution with the LEA protein at 1:40, heat stress 42 °C, day 5 [1] [%]	RPW larval mortality rate, endotoxin solution with the LEA protein, 42 °C, 10 days [2] [%]	RPW adult mortality rate, endotoxin solution with the LEA protein, 42 °C, 10 days [3] [%]
recombinant Phoenix dactylifera LEA2 protein PdLEA2.3	15	83.3	73.6
recombinant Citrullus colocynthis dehydrin CcDHN	15	89.7	77.6
recombinant Prosopis cineraria dehydrin PcDHN	13.6	88	76.3
recombinant Phoenix dactylifera LEA2 protein PdLEA2.4	11.3	83.6	73.3
recombinant Phoenix dactylifera dehydrin PdDHN	11.3	85.6	75
recombinant Phoenix dactylifera LEA2 protein PdLEA2.2	11	84.7	75
